# From the DeepSol protein solubility set
# Test: soluble on expression in E. coli; label from the status in PepcDB or PDB records
row,Sequence,soluble on expression in E. coli
1,MCHNGRMESLSLSHHFLIAMPGMGDPLFAKSLVYLCEHGEHGAMGLIINKPSGIAMAQLFDQIDLPLDDEDTRTGLVYFGGPVQPDRGFVLHQPAGNWQSSLMVTDDIALTTSKDVLVAVSEGKKPEQLLISLGYAGWSAGQLEKEIADNGWLTVPAEPSIVFDLPYEERYDAAMALLGFDPSLLSSDVGHALEHHHHHH,soluble
2,MCKSCYHCGEDVPANTDFKVEILGEVREMCCPGCETVAQTIVDSGLVSYYQYRTAPAEKADLVPEQLQALIHYDNEDVQSEFVRNHDN,not soluble
3,MCLARSISRRENYKPLKSKVMTKRNVGRPPKNERADHCCMVRFTDTEFARFLTLFEQSGLQNRAAFIKARVFNETFRVIKVDRSLLDYYQKLTTLYGQFRSVGVNYNQTVVALKSNFTEKKAFAMLTKLEKLTLELAIIGGEIVQLTRKFQEKWQHRQ,not soluble
4,MCLEDSDAGASNEYDSSPAAWNKEDFPWSGKVKDILQNVFKLEKFRPLQLETINVTMAGKEVFLVMPTGGGKSLCYQLPALCSDGFTLVICPLISLMEDQLMVLKQLGISATMLNASSSKEHVKWVHAEMVNKNSELKLIYVTPEKIAKSKMFMSRLEKAYEARRFTRIAVDEVHCCSQWGHDFRPDYKALGILKRQFPNASLIGLTATATNHVLTDAQKILCIEKCFTFTASFNRPNLYYEVRQKPSNTEDFIEDIVKLINGRYKGQSGIIYCFSQKDSEQVTVSLQNLGIHAGAYHANLEPEDKTTVHRKWSANEIQVVVATVAFGMGIDKPDVRFVIHHSMSKSMENYYQESGRAGRDDMKADCILYYGFGDIFRISSMVVMENVGQQKLYEMVSYCQNISKCRRVLMAQHFDEVWNSEACNKMCDNCCKDSAFERKNITEYCRDLIKILKQAEELNEKLTPLKLIDSWMGKGAAKLRVAGVVAPTLPREDLEKIIAHFLIQQYLKEDYSFTAYATISYLKIGPKANLLNNEAHAITMQVTKSTQNSFRAESSQTCHSEQGDKKMEAENLYFQSHHHHHHDYKDDDDK,soluble
5,MDAQGLRLITALKLCILATKKDGTPLYSDREQYIFSELYGLEGNEIQNMISLGDKLGLSRERIRQLKVKVFKKFGILRKRNIPAIIDIDNLLTNNHQINLDEVHNFACYLKKFQESHLSEYPIETLFDLAQLYFKQDYSIIKTWKREIKETSTIFPKKQNSQLTDITNKIIWFDHVKSWTLEEIHQITPHRNYDPNKKYLESEAGEFYSNKLQRNVFYESMLEKKFYKRLEKSHEVIYYVEQGITITYDRGKYTPDAIVFLDDGKGFVVEIKPLTEMANQSVQKKFKALLDFCEETGLGATLTDGRTDINHIFETIPNLAFEESILQSLKEFKKLTYGKVNELKNKYQVTTIHLLQCIIKNNLSYNSMPTFIWKTKKPIICDLLLSPENKMLLKGSTDIINNDKTLEHHHHHH,not soluble
6,MDAVRQSFQQLQNELRRDWCGIEAGGLASDYDILVVPSLSLDAHELQKISGVLFYEERLLFSLIRLRDPRTRVIYVTSEPLPPLVIDYYLQLLPGIPFSHARDRLLLLSTCDSSLKPLTQKILERPRLLERIRRALRPGSSFMTCFNSSPLERELSVALRVPLFAADPDLLEWGTKAGSRSLFAECGLPHPAGSPLMDSVEDLAAAAAELWQDQPQAQRFVIKLNQGFSGEGNALLDLRPIAQQSPDRVGLTAASQAIAQQFPVMRFQAAHETWQNFQGRITDLGAIAELFIEGEVKRSPSVQGCIHPSGQVEILSTHDQILGGPDGQIYLGCRFPADPAYRLQLQKWGEQIGEALAQRGALERFGVDFVAVNQGGDHWELQAIEINLRKGGTTHPFMTLKYLTNGYYDPQSGQFCSELGQPKYYVATDNLQSPRYRGVLPQDLMDIIAANQLHFDSSTKTGTVFHLMGCLSQYGKLGLTSIGNSPEQAQALYDEVVSVLDRETDPALEHHHHHH,soluble
7,MDCVVGRKNSAAVLLVLSERKTREEIILKLPDKTQESVIKAIDELERKYRRKFREKFKTITVDNGTEFLDYRGIEKSKTEPGKDRTKVYYAHPYSSWERGTNENINKLIRRFIPKGTDISKVSKAKIKSIERWINEYPRRMFGYRSAIEMAV,soluble
8,MDCWISTDYQSRTGNMAYPCTNRKTADSYYLNRSYQLDRIAVLLFLRQGTNAAMAGYWSSKILATSESNIYMNIILNMGEYSKSQ,not soluble
9,MDDDFVRALNKFNSKFSFRNKKNSLNEVLQKNKRNDKKEDINCNKLKNDLELQYIHSSNNKICQKFLTLPLNKKSDKLKDHSDKIILPVSILKTLEKGNYKNEVEFPYTFSIKNVQNNYITHACVLEFSSNEGIIFVSDNIKENLGLNKPQNSSIARVLITYCILSKCDFIKLDSLNNNINDIKYMKNLLENELSLNYSTLTLGDYIHINHLNFYISELEPDNAVSLINTDINVDICERNNMEGYKNVNILGDHKDIYEIIKIDIPINSSIQKGMNKYKFVLNNNTLDLLKKGKIELAIHLQSQMMLHSLNLFISLPPLDSVSEVLHHLYIDDYSTDEIIINREVIRNILKLHFACMIKEQPYNKNNDNHHANDKEDNVHNGTCNDHHEDDKIEKQNYDDSFLEYIFEHFFPHIIYIGVHNYMDTLVDYSICLKLNGEKNMSTKKDDSNNKCVNTSGFIHNNINLLKNININTQDIDNNNNDDTYITCDNCLKNILKYNIHMHKIHCLKNFTLCNICKKVLKKNEKDNHIHCDICNEGMHKNKKKTHELIWHTQIKCVCDKLLFRKQFIFHQNLFCPKKIIYCTFCNIFTQSNINIYNEEFILATFFDKYDNIKTNNSTVNKSIKYYYNMLFTYFHFFLKYIKNTEHEKYCGSKSINCTICKQIIYRNEYLLHLNTLHHFNKIESFKIINDNADLSQLMN,not soluble
10,MDDDILGLEDVTASEAFKIIYELSKASKIDADRSDAAKAQFTLLHSTLLQALQAERDLLDQAKALKRQKEEQEAAITGAGGVPGADDIDQLREDVEAALGEAALAQERQQLLQLEVTDLQRQRNDLGARMEELAAEHAAALQPVIAQARGEAAALVDELDEERRRVEAAHGELEDMKSKLAAVQEEIEAMGETKAVERANLVKVDPLPDKARRQSEAVAAILKSVQGQLESMNARYGEHDTQYKTAAEREQQLTEEHTKMLTALERGRVQVESKARHADDVRKDVELASIEADKILADQVELDLRVKNLALELKAESDHLNRRQREKELMLRQYRVADQQLKDARDMLPNLKFQVEQMHRDVNTLEARRRAQSRELSDVKRELDIQMAAFLHEEADGKEKVALFQLTYKEVAALEAELAALKREEAERDTILRDLGSQRDRVALAIAQKLSKVKDVQMTSRIKEVELAELKKIRKEVGRRIRDFEKLYDLVKNQRNKFVNLIQAASQSTTEMKDKLKVLQNELDILQNEVGIKDKLLQQQHTQHAANIAERDQLRVELGRLGMVFRDKQAVVDEQIAEVDKLNAIINGCEKEMLRLKKQYELVIEARNYTGIMLIDRNDELCVLYEKANILDEVIKSGQLELMRREDEARLLRLEVGELERSIGVTRRLVPSVPLLDNDVAALQKALFEARREAEALSLALENPSNQGRWRLLEGKIPDREELSAKIQALEERLNDKKEQLLEKELILEEITSLSDKLRVQAAEGRADTLELAQRVNEYQSKLRAVTRKIMATVSELSMYQASALKLGAEKEELEGAVSLASQRLEAGEPPTDDAEREWYRLERERHTVDAMAEERRAVAAALDARVAEVQSTAEPRPNAYIPEQLGIPKPYGSFAPFKPQEAGSTMRHIRKPSPKEVVI,not soluble
11,MDDPVADQPDGTDETPDGDTAGSSPIGLADAQARAREAVAELLEHPFDGIITAESGADGGWRILAEVVERSAVPDTQDIIGRYEITLDDGGRVLEHHHHHH,not soluble
12,MDDRGGSFVAVRRISQGLERGSVYHSSSAEVVAGSAAWLGRGLSCVCVQGRDGDPRPSFDLTPAQEECLQRLQSRIDVAYDSSIPQHQEALKDLWKLAFPEEELHGIVSDQWKEMGWQGKDPSTDFRGGGFISLENLLYFARKFPKSFHGLLRKQVGDRSVWEYPFAVAGINITFMLIQMLDLEAVNESAFDLLYCIAFKLMDQQWLSMRASYMEFNTVMKSTRRQLEREIMIEDITSLEDLPSYSLLSQ,soluble
13,MDEDLTPIPSLTPDIQKFRIYGRVTYFQENKNGNGIHFLLTDSLGCSIKCIVTVEAVVKHCKDQLKLGQPCYVRGGRVDYHDKRYPNRTGHDCVIFNNNIAEIQITTVATNFVTPIATLNAPKIIYKVHGMITQRGKYSKKEVFCFVITDDKGDSVNVAAFCEFADWLYENLKEKQWYYLYCGLIEKVCKPDDQKEPNNVIILHNKCQIETPSDPSVADPFAELDDLNCTINKMKL,not soluble
